From PMC9972910 come the findings set out here.

Assay [1] deals with LptB2FG complex (Escherichia coli) (UniProt P0A9V1). Description: SPR; LptB2FG or LptB2F^R212GG covalently immobilised, increasing concentrations of monomeric LptA flowed over; fitted at equilibrium; details in Text S1.
The target of assay [2] is LptB2F^R212GG complex (Escherichia coli) (UniProt P0A9V1). The description is as above.

For “monomeric version of LptA (from UniProt P0ADV1 28-159) (domain or fragment)”, the Kd (as a rule, a measure of binding affinity in units of concentration) in assay [1] amounted to 74 µM; in assay [2], 81 µM.
